{"source": "patent US10584341", "about": "“Antagonistic PDL1 aptamers and their applications in cancer therapy” (Academia Sinica)", "key": {"PDL1 (CD274, B7-H1) [1]": {"molecular_target": "T1, PDL1 (CD274, B7-H1) (Homo sapiens, UniProt Q9NZQ7 Q9NZQ7:19-238)", "T1 sequence (Q9NZQ7 19-238, one chain of several)": "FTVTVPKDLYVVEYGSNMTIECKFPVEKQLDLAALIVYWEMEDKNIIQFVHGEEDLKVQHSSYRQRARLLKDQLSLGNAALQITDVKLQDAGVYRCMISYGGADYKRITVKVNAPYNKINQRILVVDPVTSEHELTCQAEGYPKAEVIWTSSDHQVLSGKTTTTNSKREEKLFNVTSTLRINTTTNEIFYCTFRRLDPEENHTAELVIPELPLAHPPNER", "experiment": "filter; passed cut-off of 5 for PDL1/BSA signal, qPCR", "protocol": "Evaluation of the Relative Binding Ability of Candidate PDL1 Aptamers Using Nitrocellulose Filter Binding Assay The sequences of candidate PDL1 targeting aptamers were ranked by output reads from next-generation sequencing and sequences with output reads over 100 were analyzed. Among them, top 50 candidate aptamer sequences accounted for over 85% output reads. To evaluate their binding abilities toward PDL1, these top 50 candidate aptamers were synthesized and analyzed by nitrocellulose filter binding assay. The binding abilities toward BSA were used as negative control. In brief, candidate aptamer was incubated with PDL1 or BSA, respectively. Aptamer-protein complexes were collected by nitrocellulose filter and eluted by heating. The number of eluted aptamer was quantified by quantitative PCR and normalized by dividing the signal from PDL1 group to signal from BSA group. In order to find out the PDL1 aptamer with higher specificity, the cut-off value was set at 5."}, "PDL1 (CD274, B7-H1) [2]": {"molecular_target": "T1, PDL1 (CD274, B7-H1)", "experiment": "competition; ED50 for blocking PD-1:PDL1, ELISA", "protocol": "Identification of Antagonistic PDL1 Aptamers Using an ELISA-Based Competition Assay To investigate the efficacy of candidate PDL1 aptamers as antagonistic agents, ELISA-based competition assay was performed. Human PDL1 recombinant protein (2 µg/ml) was coated onto wells of 96-well ELISA plates and blocked by BSA (10 mg/ml). Human PD-1 protein (0.6 µg/ml) and aptamer (500 nmole/l) were added into wells simultaneously. After washing away unbound human PD-1 protein, PD-1 protein which remained in wells was detected by HRP-labeled anti-human IgG antibody. TMB was used as HRP substrate for color development and absorbance at 652 nm was detected by ELISA plate reader. Remained human PD-1 protein amount was quantified using standard curve which built by serial diluted human PD-1 protein. Wells without PDL1 coating were used as negative control.\nTo further investigate 50% effective dose of AP14 and AP32 as PDL1 blocking agents, serial diluted AP14 and AP32 ranged from 12.5 nmole/l to 500 nmole/l were used in previously mentioned ELISA-based competition assay."}, "[3]": {"molecular_target": "PDL1 (CD274) on LL/2 cells (Mus musculus, UniProt Q9EP73 Q9EP73:19-290)", "sequence (Q9EP73 19-290, one chain of several)": "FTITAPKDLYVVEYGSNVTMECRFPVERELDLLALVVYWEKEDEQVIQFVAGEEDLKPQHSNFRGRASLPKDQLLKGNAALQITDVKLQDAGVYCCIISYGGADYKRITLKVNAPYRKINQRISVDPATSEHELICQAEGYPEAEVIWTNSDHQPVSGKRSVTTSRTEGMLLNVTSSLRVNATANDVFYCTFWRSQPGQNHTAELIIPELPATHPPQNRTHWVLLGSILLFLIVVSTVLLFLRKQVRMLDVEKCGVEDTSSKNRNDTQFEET", "experiment": "flow; apparent Kd on LL/2 cells", "conditions": "tags: endogenous, LL/2 lung carcinoma cells; label: fluorescent dye (not specified)"}, "[4]": {"molecular_target": "PDL1 (CD274) on CT26 cells (Mus musculus, UniProt Q9EP73 Q9EP73:19-290)", "sequence (Q9EP73 19-290, one chain of several)": "as above", "experiment": "flow; apparent Kd on CT26 cells", "conditions": "tags: endogenous, CT26 colorectal cancer cells; label: fluorescent dye (not specified)"}, "[5]": {"conditions": "Mfold-predicted long terminal stem and two short stem loops"}}, "note": "Where two headings read alike, the source gives them in different places.", "data": [{"binder": "AP22 (ssDNA) DNA: TCCCTACGGCGCTAACAAACTAGGGTCCATTTGTGTACCTGCGAGCCACCGTGCTACAAC", "values": [{"measurement": "binding signal", "setting": "PDL1 (CD274, B7-H1) [1]", "result": "> 5", "unit": "fold over BSA"}]}, {"binder": "AP48 (ssDNA) DNA: TCCCTACGGCGCTAACCATGTTCCTTTCGTTCTGCCTTTTCCTTCCGCCACCGTGCTACAAC", "values": [{"measurement": "binding signal", "setting": "PDL1 (CD274, B7-H1) [1]", "result": "> 5", "unit": "fold over BSA"}]}, {"binder": "AP14 (ssDNA) DNA: TCCCTACGGCGCTAACCACTCAATAATTCCACTGCTACATACGTTTGCCACCGTGCTACAAC", "values": [{"measurement": "binding signal", "setting": "PDL1 (CD274, B7-H1) [1]", "result": "> 5", "unit": "fold over BSA"}, {"measurement": "EC50", "setting": "PDL1 (CD274, B7-H1) [2]", "result": 41, "unit": "nM"}]}, {"binder": "AP36 (ssDNA) DNA: TCCCTACGGCGCTAACCATGTTTTCGAAAGACAATCCGCTGCCCTGGCCACCGTGCTACAAC", "values": [{"measurement": "binding signal", "setting": "PDL1 (CD274, B7-H1) [1]", "result": "> 5", "unit": "fold over BSA"}]}, {"binder": "AP33 (ssDNA) DNA: TCCCTACGGCGCTAACCATCTGGTACCTTACGACGCTTCATCTCCCGCCACCGTGCTACAAC", "values": [{"measurement": "binding signal", "setting": "PDL1 (CD274, B7-H1) [1]", "result": "> 5", "unit": "fold over BSA"}]}, {"binder": "AP32 (62-nt) (ssDNA) DNA: TCCCTACGGCGCTAACACATCAACTTGATAGACAACTGCGTCCACTGCCACCGTGCTACAAC", "values": [{"measurement": "binding signal", "setting": "PDL1 (CD274, B7-H1) [1]; [5]", "result": "> 5", "unit": "fold over BSA"}, {"measurement": "EC50", "setting": "PDL1 (CD274, B7-H1) [2]; [5]", "result": 12, "unit": "nM"}]}, {"binder": "ACGGGCCACATCAACTCATTGATAGACAATGCGTCCACTGCCCGT (ssDNA)", "note": "[aptPDL1 fluorescently labeled]", "values": [{"measurement": "Kd", "setting": "[3]", "result": "~155", "unit": "nM"}, {"measurement": "Kd", "setting": "[4]", "result": "~250", "unit": "nM"}]}]}
